According to patent US20200270325A1 (Merck Sharp & Dohme, published 2020):
Numbered stars: 1 amine (or outer) side, 2 acyl side, 3 side chain; on linkers, the order of the positions; unused ones are H or OH. Square brackets hold non-standard residues; d marks the D form. Side chains are listed from the residue outwards. Ends that are not written are not given here. * marks the point of attachment. Phe(4-CH2NH2) = NCc1ccc(C[C@H](N)C(=O)O)cc1; C18 diacid = O=C(O)CCCCCCCCCCCCCCCCC(=O)*; C16 diacid = O=C(O)CCCCCCCCCCCCCCC(=O)*; γGlu = O=C(O)[C@H](CCC(=O)[*:2])N[*:1]; Met(O2) = CS(=O)(=O)CC[C@H](N)C(=O)O; αMeD = C[C@](N)(CC(=O)O)C(=O)O; AEEA = NCCOCCOCC(=O)O; Aib = CC(C)(N)C(=O)O

Experiments:
[1] = molecular target: human GLP-1 receptor (GLP1R) (human, UniProt P43220 24-463); test: cell-based or functional assay
[2] = molecular target: human Glucagon receptor (GCGR) (human, UniProt P47871 26-477); test: cell-based or functional assay
human Glucagon receptor (GCGR), sequence (P47871 26-477): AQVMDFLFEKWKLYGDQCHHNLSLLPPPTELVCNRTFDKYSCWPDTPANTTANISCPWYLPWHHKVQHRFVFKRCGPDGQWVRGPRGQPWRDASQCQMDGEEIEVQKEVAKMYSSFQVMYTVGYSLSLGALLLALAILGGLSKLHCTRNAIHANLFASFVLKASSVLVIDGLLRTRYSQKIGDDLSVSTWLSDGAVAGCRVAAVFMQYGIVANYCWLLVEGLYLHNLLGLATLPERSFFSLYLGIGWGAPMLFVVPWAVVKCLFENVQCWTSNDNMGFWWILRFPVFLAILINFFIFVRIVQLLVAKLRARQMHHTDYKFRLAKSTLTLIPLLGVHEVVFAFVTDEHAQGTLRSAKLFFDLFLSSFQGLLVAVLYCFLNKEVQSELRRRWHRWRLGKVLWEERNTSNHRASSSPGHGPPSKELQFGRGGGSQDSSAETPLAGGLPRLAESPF

Binder	GLP1R EC50 human [1] [pM]	GCGR EC50 human [2] [pM]
H[Aib]QGTFTSDYSKYLDAKAAK([AEEA-AEEA-γGlu-C18 diacid])DFVQWL[Met(O2)]DT-NH2 (N-terminus assumed; SMILES CC(C)C[C@H](NC(=O)[C@H](Cc1ccc(O)cc1)NC(=O)[C@H](CCCCN)NC(=O)[C@H](CO)NC(=O)[C@H](Cc1ccc(O)cc1)NC(=O)[C@H](CC(=O)O)NC(=O)[C@H](CO)NC(=O)[C@@H](NC(=O)[C@H](Cc1ccccc1)NC(=O)[C@@H](NC(=O)CNC(=O)[C@H](CCC(N)=O)NC(=O)C(C)(C)NC(=O)[C@@H](N)Cc1c[nH]cn1)[C@@H](C)O)[C@@H](C)O)C(=O)N[C@@H](CC(=O)O)C(=O)N[C@@H](C)C(=O)N[C@@H](CCCCN)C(=O)N[C@@H](C)C(=O)N[C@@H](C)C(=O)N[C@@H](CCCCNC(=O)COCCOCCNC(=O)COCCOCCNC(=O)CC[C@H](NC(=O)CCCCCCCCCCCCCCCCC(=O)O)C(=O)O)C(=O)N[C@@H](CC(=O)O)C(=O)N[C@@H](Cc1ccccc1)C(=O)N[C@H](C(=O)N[C@@H](CCC(N)=O)C(=O)N[C@@H](Cc1c[nH]c2ccccc12)C(=O)N[C@@H](CC(C)C)C(=O)N[C@@H](CCS(C)(=O)=O)C(=O)N[C@@H](CC(=O)O)C(=O)N[C@H](C(N)=O)[C@@H](C)O)C(C)C) [TP598]	500	1140
H[Aib]QGTFTSDYSKYLDERAAK([AEEA-AEEA-γGlu-C20‑OH])DFVQWL[Met(O2)][αMeD]T-NH2 [TP589]	2070	19800
HXQGTFTSDYSKYLDARAAQXFVQWLXXT (Aib (U) at 2; K(PEG5-γEC18-OH) at 21; L-methionine sulphone (2) at 27; αMD (printed aMD) at 28; C-terminal amide) [TP608]	230	210
H[Aib]QGTFTSDYSKYLDARAAQK([AEEA-AEEA-γGlu-C16 diacid])FVQWL[Met(O2)][γGlu]T-NH2 (N-terminus assumed; SMILES CC(C)C[C@H](NC(=O)[C@H](Cc1ccc(O)cc1)NC(=O)[C@H](CCCCN)NC(=O)[C@H](CO)NC(=O)[C@H](Cc1ccc(O)cc1)NC(=O)[C@H](CC(=O)O)NC(=O)[C@H](CO)NC(=O)[C@@H](NC(=O)[C@H](Cc1ccccc1)NC(=O)[C@@H](NC(=O)CNC(=O)[C@H](CCC(N)=O)NC(=O)C(C)(C)NC(=O)[C@@H](N)Cc1c[nH]cn1)[C@@H](C)O)[C@@H](C)O)C(=O)N[C@@H](CC(=O)O)C(=O)N[C@@H](C)C(=O)N[C@@H](CCCNC(=N)N)C(=O)N[C@@H](C)C(=O)N[C@@H](C)C(=O)N[C@@H](CCC(N)=O)C(=O)N[C@@H](CCCCNC(=O)COCCOCCNC(=O)COCCOCCNC(=O)CC[C@H](NC(=O)CCCCCCCCCCCCCCC(=O)O)C(=O)O)C(=O)N[C@@H](Cc1ccccc1)C(=O)N[C@H](C(=O)N[C@@H](CCC(N)=O)C(=O)N[C@@H](Cc1c[nH]c2ccccc12)C(=O)N[C@@H](CC(C)C)C(=O)N[C@@H](CCS(C)(=O)=O)C(=O)N[C@@H](CCC(=O)N[C@H](C(N)=O)[C@@H](C)O)C(=O)O)C(C)C) [TP827]	81	133
H[Aib]QGTFTSDYSKYLD[Aib]RAAQDFVK([AEEA-AEEA-γGlu-C16 diacid])WL[Met(O2)][γGlu]T-NH2 (N-terminus assumed; SMILES CC(C)C[C@H](NC(=O)[C@H](Cc1c[nH]c2ccccc12)NC(=O)[C@H](CCCCNC(=O)COCCOCCNC(=O)COCCOCCNC(=O)CC[C@H](NC(=O)CCCCCCCCCCCCCCC(=O)O)C(=O)O)NC(=O)[C@@H](NC(=O)[C@H](Cc1ccccc1)NC(=O)[C@H](CC(=O)O)NC(=O)[C@H](CCC(N)=O)NC(=O)[C@H](C)NC(=O)[C@H](C)NC(=O)[C@H](CCCNC(=N)N)NC(=O)C(C)(C)NC(=O)[C@H](CC(=O)O)NC(=O)[C@H](CC(C)C)NC(=O)[C@H](Cc1ccc(O)cc1)NC(=O)[C@H](CCCCN)NC(=O)[C@H](CO)NC(=O)[C@H](Cc1ccc(O)cc1)NC(=O)[C@H](CC(=O)O)NC(=O)[C@H](CO)NC(=O)[C@@H](NC(=O)[C@H](Cc1ccccc1)NC(=O)[C@@H](NC(=O)CNC(=O)[C@H](CCC(N)=O)NC(=O)C(C)(C)NC(=O)[C@@H](N)Cc1c[nH]cn1)[C@@H](C)O)[C@@H](C)O)C(C)C)C(=O)N[C@@H](CCS(C)(=O)=O)C(=O)N[C@@H](CCC(=O)N[C@H](C(N)=O)[C@@H](C)O)C(=O)O) [TP828]	587	228
H[Aib]QGTFTSDYSKYLD[Aib]RAAK([AEEA-AEEA-γGlu-C20‑OH])DFVQWL[Met(O2)]DT-NH2 [TP564]	1220	1250
H[Aib]QGTFTSDYSKYLD[Aib]RAAQDFVK([AEEA-AEEA-γGlu-C18 diacid])WL[Met(O2)]DT-NH2 (N-terminus assumed; SMILES CC(C)C[C@H](NC(=O)[C@H](Cc1c[nH]c2ccccc12)NC(=O)[C@H](CCCCNC(=O)COCCOCCNC(=O)COCCOCCNC(=O)CC[C@H](NC(=O)CCCCCCCCCCCCCCCCC(=O)O)C(=O)O)NC(=O)[C@@H](NC(=O)[C@H](Cc1ccccc1)NC(=O)[C@H](CC(=O)O)NC(=O)[C@H](CCC(N)=O)NC(=O)[C@H](C)NC(=O)[C@H](C)NC(=O)[C@H](CCCNC(=N)N)NC(=O)C(C)(C)NC(=O)[C@H](CC(=O)O)NC(=O)[C@H](CC(C)C)NC(=O)[C@H](Cc1ccc(O)cc1)NC(=O)[C@H](CCCCN)NC(=O)[C@H](CO)NC(=O)[C@H](Cc1ccc(O)cc1)NC(=O)[C@H](CC(=O)O)NC(=O)[C@H](CO)NC(=O)[C@@H](NC(=O)[C@H](Cc1ccccc1)NC(=O)[C@@H](NC(=O)CNC(=O)[C@H](CCC(N)=O)NC(=O)C(C)(C)NC(=O)[C@@H](N)Cc1c[nH]cn1)[C@@H](C)O)[C@@H](C)O)C(C)C)C(=O)N[C@@H](CCS(C)(=O)=O)C(=O)N[C@@H](CC(=O)O)C(=O)N[C@H](C(N)=O)[C@@H](C)O) [TP575]	866	595
H[Aib]QGTFTSDYSKLLDARAAK([AEEA-AEEA-γGlu-C18 diacid])DFVQWL[Met(O2)]DT-NH2 (N-terminus assumed; SMILES CC(C)C[C@H](NC(=O)[C@H](CC(C)C)NC(=O)[C@H](CCCCN)NC(=O)[C@H](CO)NC(=O)[C@H](Cc1ccc(O)cc1)NC(=O)[C@H](CC(=O)O)NC(=O)[C@H](CO)NC(=O)[C@@H](NC(=O)[C@H](Cc1ccccc1)NC(=O)[C@@H](NC(=O)CNC(=O)[C@H](CCC(N)=O)NC(=O)C(C)(C)NC(=O)[C@@H](N)Cc1c[nH]cn1)[C@@H](C)O)[C@@H](C)O)C(=O)N[C@@H](CC(=O)O)C(=O)N[C@@H](C)C(=O)N[C@@H](CCCNC(=N)N)C(=O)N[C@@H](C)C(=O)N[C@@H](C)C(=O)N[C@@H](CCCCNC(=O)COCCOCCNC(=O)COCCOCCNC(=O)CC[C@H](NC(=O)CCCCCCCCCCCCCCCCC(=O)O)C(=O)O)C(=O)N[C@@H](CC(=O)O)C(=O)N[C@@H](Cc1ccccc1)C(=O)N[C@H](C(=O)N[C@@H](CCC(N)=O)C(=O)N[C@@H](Cc1c[nH]c2ccccc12)C(=O)N[C@@H](CC(C)C)C(=O)N[C@@H](CCS(C)(=O)=O)C(=O)N[C@@H](CC(=O)O)C(=O)N[C@H](C(N)=O)[C@@H](C)O)C(C)C) [TP597]	610	740
H[Aib]QGTFTSDYSKYLDARAAQDFVQWL[Met(O2)][Phe(4-CH2NH2)]([AEEA-AEEA-γGlu-C18 diacid])T-NH2 (N-terminus assumed; SMILES CC(C)C[C@H](NC(=O)[C@H](Cc1ccc(O)cc1)NC(=O)[C@H](CCCCN)NC(=O)[C@H](CO)NC(=O)[C@H](Cc1ccc(O)cc1)NC(=O)[C@H](CC(=O)O)NC(=O)[C@H](CO)NC(=O)[C@@H](NC(=O)[C@H](Cc1ccccc1)NC(=O)[C@@H](NC(=O)CNC(=O)[C@H](CCC(N)=O)NC(=O)C(C)(C)NC(=O)[C@@H](N)Cc1c[nH]cn1)[C@@H](C)O)[C@@H](C)O)C(=O)N[C@@H](CC(=O)O)C(=O)N[C@@H](C)C(=O)N[C@@H](CCCNC(=N)N)C(=O)N[C@@H](C)C(=O)N[C@@H](C)C(=O)N[C@@H](CCC(N)=O)C(=O)N[C@@H](CC(=O)O)C(=O)N[C@@H](Cc1ccccc1)C(=O)N[C@H](C(=O)N[C@@H](CCC(N)=O)C(=O)N[C@@H](Cc1c[nH]c2ccccc12)C(=O)N[C@@H](CC(C)C)C(=O)N[C@@H](CCS(C)(=O)=O)C(=O)N[C@@H](Cc1ccc(CNC(=O)COCCOCCNC(=O)COCCOCCNC(=O)CC[C@H](NC(=O)CCCCCCCCCCCCCCCCC(=O)O)C(=O)O)cc1)C(=O)N[C@H](C(N)=O)[C@@H](C)O)C(C)C) [TP604]	470	1090
H[Aib]QGTFTSDYSKYLDARAAQ[Phe(4-CH2NH2)]([AEEA-AEEA-γGlu-C18 diacid])FVQWLLDT-NH2 (N-terminus assumed; SMILES CC(C)C[C@H](NC(=O)[C@H](Cc1ccc(O)cc1)NC(=O)[C@H](CCCCN)NC(=O)[C@H](CO)NC(=O)[C@H](Cc1ccc(O)cc1)NC(=O)[C@H](CC(=O)O)NC(=O)[C@H](CO)NC(=O)[C@@H](NC(=O)[C@H](Cc1ccccc1)NC(=O)[C@@H](NC(=O)CNC(=O)[C@H](CCC(N)=O)NC(=O)C(C)(C)NC(=O)[C@@H](N)Cc1c[nH]cn1)[C@@H](C)O)[C@@H](C)O)C(=O)N[C@@H](CC(=O)O)C(=O)N[C@@H](C)C(=O)N[C@@H](CCCNC(=N)N)C(=O)N[C@@H](C)C(=O)N[C@@H](C)C(=O)N[C@@H](CCC(N)=O)C(=O)N[C@@H](Cc1ccc(CNC(=O)COCCOCCNC(=O)COCCOCCNC(=O)CC[C@H](NC(=O)CCCCCCCCCCCCCCCCC(=O)O)C(=O)O)cc1)C(=O)N[C@@H](Cc1ccccc1)C(=O)N[C@H](C(=O)N[C@@H](CCC(N)=O)C(=O)N[C@@H](Cc1c[nH]c2ccccc12)C(=O)N[C@@H](CC(C)C)C(=O)N[C@@H](CC(C)C)C(=O)N[C@@H](CC(=O)O)C(=O)N[C@H](C(N)=O)[C@@H](C)O)C(C)C) [TP443]	100	180
